From patent publication US20240181094A1, “[161Tb]-BASED RADIOPEPTIDES” (priority 2021, published 2024) come the findings set out here.

The nature of one data set: in vivo. To be noted: female, mouse, iv, 1 nmol/mouse, total radioactivity.
Data set [1] concerns AR42J tumor-bearing mice. To be noted: female, CD-1 Foxn-1/nu athymic nude, mouse, in vivo, iv, 1 nmol/mouse, 24 h.
Data set [2] has as its system AR42J tumor-bearing mice. In words: Biodistribution studies: comparison of 161Tb- and 177Lu-labeled peptides. To be noted: 1 nmol/mouse, 2 h p.i.

The structures appear in SMILES notation. Starred links: 1 amine or outer side, 2 acyl side, 3 side chain; linkers in the order of their positions; H or OH if unused. Positions of bridges follow the written chain, without caps; N, C: chain ends. Non-standard residues stand in square brackets, D forms with d. Residues, ends and D or L forms follow the SMILES beside them. *: point of attachment. DOTA = O=C(O)CN1CCN(CC(=O)O)CCN(CC(=O)*)CCN(CC(=O)O)CC1; X1 = NC(=O)Nc1ccc(CC(N[*:1])C(=O)[*:2])cc1; Phe(4-Cl) = N[CH](Cc1ccc(Cl)cc1)C(=O)O Where only a bound is given, the exact number is not on record here.

In the case of `CC(O)C1NC(=O)C(CCCCN)NC(=O)C(Cc2ccc(NC(N)=O)cc2)NC(=O)C(Cc2ccc(O)cc2)NC(=O)C(NC(=O)C(Cc2ccc(Cl)cc2)NC(=O)CN2CCN(CC(=O)O)CCN(CC(=O)O)CCN(CC(=O)O)CC2)CSSCC(C(=O)NC(Cc2ccc(O)cc2)C(N)=O)NC1=O` (stereo not shown) [metal not drawn] ({DOTA}-[Phe(4-Cl)]CY[X1]KTCY-NH2; disulfide 2-7; configuration not given here), in “in vivo” (CD-1 Foxn-1/nu athymic nude), the tissue uptake at 2 h is at most 0.1 %ID/g and the tissue uptake at 24 h was at most 0.1 %ID/g. Besides, in the data set “in vivo” (athymic nude CD-1 Foxn-1/nu), the tissue uptake at 2 h is at most 0.1 %ID/g and the tissue uptake at 24 h is at most 0.1 %ID/g. In the data set on AR42J tumor-bearing mice [1], the Muscle uptake was at most 0.10 % IA/g. Moreover, in the data set on AR42J tumor-bearing mice [2], the Femur uptake is given as 0.20 ± 0.05 % IA/g and the Lung uptake amounted to 1.0 ± 0.2 % IA/g.
